Patent US12679878B2, “CRF2 receptor agonists and their use in therapy” (SANOFI, priority 2020, dated 2026)
Where two headings read alike, the source gives them in different places. Starred links: 1 amine or outer side, 2 acyl side, 3 side chain; linkers in the order of their positions; H or OH if unused. Non-standard residues stand in square brackets, D forms with d. Residues, ends and D or L forms follow the SMILES beside them. Groups on a side chain read outwards from the residue. No end group written: not given here. *: point of attachment. C20 diacid = O=C(O)CCCCCCCCCCCCCCCCCCC(=O)*; C18 diacid = O=C(O)CCCCCCCCCCCCCCCCC(=O)*; γGlu = O=C(O)[C@H](CCC(=O)[*:2])N[*:1]; Palmitoyl = CCCCCCCCCCCCCCCC(=O)*; AEEA = NCCOCCOCC(=O)O; Aib = CC(C)(N)C(=O)O

T1: human CRF2α receptor (Homo sapiens, UniProt Q13324)
T1 construct: expressed in transfected cells; host or cells: TeloHEAC
T1 sequence (Q13324 1-411): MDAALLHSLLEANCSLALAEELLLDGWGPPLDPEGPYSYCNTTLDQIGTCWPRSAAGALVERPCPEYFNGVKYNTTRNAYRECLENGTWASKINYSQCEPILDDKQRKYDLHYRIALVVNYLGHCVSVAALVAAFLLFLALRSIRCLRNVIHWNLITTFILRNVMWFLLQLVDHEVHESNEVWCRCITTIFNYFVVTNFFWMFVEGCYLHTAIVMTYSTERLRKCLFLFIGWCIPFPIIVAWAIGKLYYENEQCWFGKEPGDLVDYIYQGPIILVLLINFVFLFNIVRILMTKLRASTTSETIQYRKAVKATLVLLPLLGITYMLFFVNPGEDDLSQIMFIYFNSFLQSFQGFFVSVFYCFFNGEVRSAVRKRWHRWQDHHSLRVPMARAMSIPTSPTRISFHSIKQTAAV

T2: CRF1R receptor (Homo sapiens, UniProt P34998)
T2 construct: host or cells: CHO-K1 clone 2
T2 sequence (P34998 24-415): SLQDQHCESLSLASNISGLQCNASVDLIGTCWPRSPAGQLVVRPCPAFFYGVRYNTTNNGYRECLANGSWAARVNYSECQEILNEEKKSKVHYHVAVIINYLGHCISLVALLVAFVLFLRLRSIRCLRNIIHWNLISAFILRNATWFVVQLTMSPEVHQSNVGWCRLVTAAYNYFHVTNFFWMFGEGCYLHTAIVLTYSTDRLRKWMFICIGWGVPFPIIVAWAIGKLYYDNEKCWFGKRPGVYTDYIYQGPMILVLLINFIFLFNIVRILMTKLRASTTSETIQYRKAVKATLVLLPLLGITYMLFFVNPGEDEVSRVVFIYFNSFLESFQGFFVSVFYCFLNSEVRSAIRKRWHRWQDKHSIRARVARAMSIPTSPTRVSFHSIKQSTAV

T3: CRF1R receptor (anti-target) (UniProt P34998 24-415, limits assumed)
T3 sequence (looked up): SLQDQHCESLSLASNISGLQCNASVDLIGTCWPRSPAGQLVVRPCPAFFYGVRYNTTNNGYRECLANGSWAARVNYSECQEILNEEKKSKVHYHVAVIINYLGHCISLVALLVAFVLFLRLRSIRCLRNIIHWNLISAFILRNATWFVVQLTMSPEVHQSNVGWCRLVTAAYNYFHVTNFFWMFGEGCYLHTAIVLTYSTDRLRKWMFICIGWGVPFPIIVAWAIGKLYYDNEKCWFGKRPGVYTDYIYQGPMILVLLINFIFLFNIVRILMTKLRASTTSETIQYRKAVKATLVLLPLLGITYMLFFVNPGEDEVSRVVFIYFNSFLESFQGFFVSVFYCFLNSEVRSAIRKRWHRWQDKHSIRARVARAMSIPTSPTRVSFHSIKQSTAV


Columns and labels:
human CRF2α receptor = biological target: T1, human CRF2α receptor; assay: cAMP agonism at human CRF2 α receptor in TeloHEAC cells (Example 7); format: cell-based; conditions: cAMP HTRF, TeloHEAC cells stably expressing human CRF2 α
Procedure, shortened: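 Percent activation was referenced to 1000 nM UCN2 (100%), and EC50 values taken as concentrations giving half of maximal response. The read-out was a homogeneous time-resolved fluorescence cAMP kit, fluorescence ratio 665/620 nm. Thawed cells (2000/well) saw compound for 30 min at RT in buffer with 2 mM IBMX and 0%/0.1% HSA.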

CRF1R receptor = biological target: T2, CRF1R receptor; assay: cAMP activity at anti-target CRF1R, CRF1R-overexpression CHO cell line (Example 9); format: cell-based; conditions: CRF1R-overexpression CHO cell line
Description: Cells were grown in a T175 culture flask placed at 37° C. to near confluence in medium (DMEM/10% FBS) and collected in 2 ml vials in cell culture medium containing 10% DMSO in a concentration of 10-50 million cells/ml. Each vial contained 1.8 ml cells. The vials were slowly frozen to −80° C. in isopropanol and then transferred in liquid nitrogen for storage. Prior to use, frozen cells were thawed quickly at 37° C. and washed (5 min at 900 rpm) with 20 ml cell buffer (1×HBSS; 20 mM HEPES; 0% or 0.1% HSA). Cells were resuspended in assay buffer (cell buffer plus 2 mM IBMX) and adjusted to a cell density of 1 million cells/ml. For measurement, 5 μl cells (final […]) and 5 μL of test compound were added to a 384-well plate, followed by incubation for 30 minutes at room temperature.
The CAMP content of cells was determined using a kit from Cisbio Corp. (cat. no. 62AM4PEC) based on HTRF (Homogenous Time Resolved Fluorescence). […] The percent activity value (E %) was calculated by setting 1000 nM of urocortin 2 (UCN2) as 100%.
A CRF1R-overexpression CHO cell line was used in this study.

[1] = biological target: T3, CRF1R receptor (anti-target); assay: cell-based or functional assay

Molecule	EC50 (human CRF2α receptor; 0% HSA, read-out: EC50 [nM], 0% HSA) [nM]	EC50 (human CRF2α receptor; 0.1% HSA, read-out: EC50 [nM], 0.1% HSA) [nM]	EC50 (CRF1R receptor; 0% HSA) [nM]	Emax (CRF1R receptor; read-out: Emax (%)) [%]	EC50 [nM] 0% HSA (cAMP, HTRF) [1] [nM]	Emax (%) (100% = Sauvagine at 100 nM) [1]
CC[C@H](C)[C@H](N)C(=O)N[C@H](C(=O)N[C@@H](CC(C)C)C(=O)N[C@@H](CO)C(=O)N[C@@H](CC(C)C)C(=O)N[C@@H](CC(=O)O)C(=O)N[C@@H](C(=O)N1CCC[C@H]1C(=O)N[C@H](C(=O)N[C@@H](CCCCN)C(=O)N[C@@H](CC(C)C)C(=O)N[C@@H](CCCCNC(=O)COCCOCCNC(=O)COCCOCCNC(=O)CC[C@H](NC(=O)CC[C@H](NC(=O)CCCCCCCCCCCCCCCCCCC(=O)O)C(=O)O)C(=O)O)C(=O)N[C@@H](CCC(N)=O)C(=O)N[C@H](C(=O)N[C@@H](CC(C)C)C(=O)N[C@@H](CC(C)C)C(=O)N[C@@H](CCCCN)C(=O)N[C@@H](CCC(N)=O)C(=O)N[C@@H](CCC(=O)O)C(=O)N[C@@H](CCCNC(=N)N)C(=O)N[C@@H](CCC(N)=O)C(=O)N[C@@H](CCCCN)C(=O)NC(C)(C)C(=O)N[C@@H](CCC(N)=O)C(=O)N[C@@H](CCCNC(=N)N)C(=O)N[C@@H](CCC(=O)O)C(=O)N[C@@H](CCC(N)=O)C(=O)N[C@@H](C)C(=O)N[C@@H](CCC(=O)O)C(=O)N[C@@H](CCCCN)C(=O)N[C@@H](CC(N)=O)C(=O)N[C@@H](CCCCN)C(=O)N[C@@H](CCC(N)=O)C(=O)N[C@H](C(=O)N[C@@H](CC(C)C)C(=O)N[C@@H](C)C(=O)N[C@@H](CCC(N)=O)C(=O)N[C@H](C(N)=O)C(C)C)[C@@H](C)CC)[C@@H](C)CC)[C@@H](C)CC)C(C)C)C(C)C [compound 172] (H-IVLSLD[dV]PIKLK([AEEA-AEEA-γGlu-γGlu-C20 diacid])QILLKQERQK[Aib]QREQAEKNKQILAQV-NH2; N-terminus assumed)	0.04	2.76	> 1000	25.6		
IVLSLDVPIGLK([AEEA-AEEA-γGlu-C18 diacid])QKLLKQQRQRKERQQAEKNARILARV-NH2 (N-terminus assumed; SMILES CC[C@H](C)[C@H](N)C(=O)N[C@H](C(=O)N[C@@H](CC(C)C)C(=O)N[C@@H](CO)C(=O)N[C@@H](CC(C)C)C(=O)N[C@@H](CC(=O)O)C(=O)N[C@H](C(=O)N1CCC[C@H]1C(=O)N[C@H](C(=O)NCC(=O)N[C@@H](CC(C)C)C(=O)N[C@@H](CCCCNC(=O)COCCOCCNC(=O)COCCOCCNC(=O)CC[C@H](NC(=O)CCCCCCCCCCCCCCCCC(=O)O)C(=O)O)C(=O)N[C@@H](CCC(N)=O)C(=O)N[C@@H](CCCCN)C(=O)N[C@@H](CC(C)C)C(=O)N[C@@H](CC(C)C)C(=O)N[C@@H](CCCCN)C(=O)N[C@@H](CCC(N)=O)C(=O)N[C@@H](CCC(N)=O)C(=O)N[C@@H](CCCNC(=N)N)C(=O)N[C@@H](CCC(N)=O)C(=O)N[C@@H](CCCNC(=N)N)C(=O)N[C@@H](CCCCN)C(=O)N[C@@H](CCC(=O)O)C(=O)N[C@@H](CCCNC(=N)N)C(=O)N[C@@H](CCC(N)=O)C(=O)N[C@@H](CCC(N)=O)C(=O)N[C@@H](C)C(=O)N[C@@H](CCC(=O)O)C(=O)N[C@@H](CCCCN)C(=O)N[C@@H](CC(N)=O)C(=O)N[C@@H](C)C(=O)N[C@@H](CCCNC(=N)N)C(=O)N[C@H](C(=O)N[C@@H](CC(C)C)C(=O)N[C@@H](C)C(=O)N[C@@H](CCCNC(=N)N)C(=O)N[C@H](C(N)=O)C(C)C)[C@@H](C)CC)[C@@H](C)CC)C(C)C)C(C)C) [peptide of SEQ ID NO: 16]					> 100	0.4

Results, then the molecule that gave them:

EC50 (human CRF2α receptor; 0% HSA, read-out: EC50 [nM], 0% HSA) [nM]	EC50 (human CRF2α receptor; 0.1% HSA, read-out: EC50 [nM], 0.1% HSA) [nM]	EC50 (CRF1R receptor; 0% HSA) [nM]	Emax (CRF1R receptor; read-out: Emax (%)) [%]	EC50 [nM] 0% HSA (cAMP, HTRF) [1] [nM]	Emax (%) (100% = Sauvagine at 100 nM) [1]	Molecule
				> 100	0.1	IVLSLD[dV]PTKLK([γGlu-Palmitoyl])KKLLKQERKRKEREKAEKNARILERV-NH2 (N-terminus assumed; SMILES CCCCCCCCCCCCCCCC(=O)N[C@@H](CCC(=O)NCCCC[C@H](NC(=O)[C@H](CC(C)C)NC(=O)[C@H](CCCCN)NC(=O)[C@@H](NC(=O)[C@@H]1CCCN1C(=O)[C@H](NC(=O)[C@H](CC(=O)O)NC(=O)[C@H](CC(C)C)NC(=O)[C@H](CO)NC(=O)[C@H](CC(C)C)NC(=O)[C@@H](NC(=O)[C@@H](N)[C@@H](C)CC)C(C)C)C(C)C)[C@@H](C)O)C(=O)N[C@@H](CCCCN)C(=O)N[C@@H](CCCCN)C(=O)N[C@@H](CC(C)C)C(=O)N[C@@H](CC(C)C)C(=O)N[C@@H](CCCCN)C(=O)N[C@@H](CCC(N)=O)C(=O)N[C@@H](CCC(=O)O)C(=O)N[C@@H](CCCNC(=N)N)C(=O)N[C@@H](CCCCN)C(=O)N[C@@H](CCCNC(=N)N)C(=O)N[C@@H](CCCCN)C(=O)N[C@@H](CCC(=O)O)C(=O)N[C@@H](CCCNC(=N)N)C(=O)N[C@@H](CCC(=O)O)C(=O)N[C@@H](CCCCN)C(=O)N[C@@H](C)C(=O)N[C@@H](CCC(=O)O)C(=O)N[C@@H](CCCCN)C(=O)N[C@@H](CC(N)=O)C(=O)N[C@@H](C)C(=O)N[C@@H](CCCNC(=N)N)C(=O)N[C@H](C(=O)N[C@@H](CC(C)C)C(=O)N[C@@H](CCC(=O)O)C(=O)N[C@@H](CCCNC(=N)N)C(=O)N[C@H](C(N)=O)C(C)C)[C@@H](C)CC)C(=O)O) [peptide of SEQ ID NO: 25]
				> 100	1.2	IVLSLDVPIKLK([AEEA-AEEA-γGlu-C18 diacid])QILLKQERQK[Aib]QRQKAEKNKQILAQV-NH2 (N-terminus assumed; SMILES CC[C@H](C)[C@H](N)C(=O)N[C@H](C(=O)N[C@@H](CC(C)C)C(=O)N[C@@H](CO)C(=O)N[C@@H](CC(C)C)C(=O)N[C@@H](CC(=O)O)C(=O)N[C@H](C(=O)N1CCC[C@H]1C(=O)N[C@H](C(=O)N[C@@H](CCCCN)C(=O)N[C@@H](CC(C)C)C(=O)N[C@@H](CCCCNC(=O)COCCOCCNC(=O)COCCOCCNC(=O)CC[C@H](NC(=O)CCCCCCCCCCCCCCCCC(=O)O)C(=O)O)C(=O)N[C@@H](CCC(N)=O)C(=O)N[C@H](C(=O)N[C@@H](CC(C)C)C(=O)N[C@@H](CC(C)C)C(=O)N[C@@H](CCCCN)C(=O)N[C@@H](CCC(N)=O)C(=O)N[C@@H](CCC(=O)O)C(=O)N[C@@H](CCCNC(=N)N)C(=O)N[C@@H](CCC(N)=O)C(=O)N[C@@H](CCCCN)C(=O)NC(C)(C)C(=O)N[C@@H](CCC(N)=O)C(=O)N[C@@H](CCCNC(=N)N)C(=O)N[C@@H](CCC(N)=O)C(=O)N[C@@H](CCCCN)C(=O)N[C@@H](C)C(=O)N[C@@H](CCC(=O)O)C(=O)N[C@@H](CCCCN)C(=O)N[C@@H](CC(N)=O)C(=O)N[C@@H](CCCCN)C(=O)N[C@@H](CCC(N)=O)C(=O)N[C@H](C(=O)N[C@@H](CC(C)C)C(=O)N[C@@H](C)C(=O)N[C@@H](CCC(N)=O)C(=O)N[C@H](C(N)=O)C(C)C)[C@@H](C)CC)[C@@H](C)CC)[C@@H](C)CC)C(C)C)C(C)C) [peptide of SEQ ID NO: 22]
